# Source: patent US20150064204A1 (Amgen, published 2015)
# Changes are numbered by the printed parent chain.
# B1: 34G4 (antibody, human IgG1, kappa, V domains shown)
# VH: QVQLVESGGGVVQPGRSLRLSCAASGFTFSSYGMHWVRQAPGKGLEWVAVIWYEGSNKYYADSVKGRFTISRDNSKNTLYLQMNSLRAEDTAVYYCARGGQLGYYYYYGMDVWGQGTTVTVSS
# VL: DIQMTQSPSSLSASVGDRVTITCRASQGIRNDLGWYQQKPGKAPKRLIYDASSLQSGVPSRFSGSGSGTDFTLTISSLQPEDFATYYCLQLNSYPWTFGQGTKVEIKR
# notes: Fully human parental antibody; also called Ab4; SS-12415
# B2: 1D7 (antibody, human IgG1, kappa, V domains shown)
# VH: B1 VH with A49T, Y104K
# VL: B1 VL with D70E, L91H, S93N
# notes: Fully human parental antibody; also called Ab1; SS-10942
# B3: 7A10 (antibody, human IgG1, kappa, V domains shown)
# VH: B1 VH with V48M, E54V, R87S, Q101E, Y104R, Y105D, Y108S
# VL: B1 VL with D50A, D70E, L89Q, L91H
# notes: Fully human parental antibody; also called Ab18; SS-10944
# B4: 33C9 (antibody, human IgG1, kappa, V domains shown)
# VH: B1 VH with L4V, A49S, Q101L
# VL: B1 VL with D70E, L91H, N92H
# notes: Fully human parental antibody; also called Ab2; SS-12413
# B5: 33F6 (antibody, human IgG1, kappa, V domains shown)
# VH: B1 VH with S31N, E54V, Q101E, G103R, Y104L
# VL: B1 VL with D50A, D70E, I75V
# notes: Fully human parental antibody; also called Ab3; SS-12414
# B6: 35B10 (antibody, human IgG1, kappa, V domains shown)
# VH: B1 VH with E54A, Q101E, G103S, Y104F
# VL: B1 VL with D50A, S53T, D70E, L91H, S93N
# notes: Fully human parental antibody; also called Ab5; SS-12416
# B7: 41G5 (antibody, human IgG1, kappa, V domains shown)
# VH: B1 VH with E54P, Q101E, Y104R
# VL: B1 VL with I21V, D50A, D70E, L91H, S93N, E105D
# notes: Fully human parental antibody; also called Ab7; SS-12428
# B8: 42A11 (antibody, human IgG1, kappa, V domains shown)
# VH: B1 VH with Y108S
# VL: B1 VL with D82E, L91H, S93N
# notes: Fully human parental antibody; also called Ab8; SS-12418
# B9: 48H7 (antibody, human IgG1, kappa, V domains shown)
# VH: B1 VH with H35Y, Y95F, Q101E, Y104R, Y105D, Y108S
# VL: B1 VL with G28V, D50A, D70E, L91H, W96I, Q100G
# notes: Fully human parental antibody; also called Ab13; SS-12423
# B10: 48H12 (antibody, human IgG1, kappa, V domains shown)
# VH: B1 VH with E54A, L79V, G103A, Y104L
# VL: B1 VL with D50A, D70E, L91H, S93N
# notes: Fully human parental antibody; also called Ab12; SS-12422
# B11: 49D9v1 (antibody, human IgG1, kappa, V domains shown)
# VH: B1 VH with V2M, R16G, E54A, Q101R, Y104F
# VL: B1 VL with D50A, D70E
# notes: tied to 49D9v1 by Ab22 / SS-12562; also called Ab22; SS-12562
# B12: 5H7 (antibody, human IgG1, kappa, V domains shown)
# VH: QVQLQESGPGLVKPSQTLSLTCTVSGGSISSGGYFWSWIRQHPGKGLEWIGYIYYSGTTYYNPSLKSRVTISIDTSKNHFSLKLSSVTAADTAVYYCARDLFYYDSSGPRGFDPWGQGTLVTVSS
# VL: EIVLTQSPGTLSLSPGERATLSCRASQTVSSNYLAWYQQKPGQAPRLLIYGSSTRATGIPDRFSGSGSGTDFTLTISRLEPEDFAVYYCQQYDSSPWTFGQGTKVEIKR
# notes: Fully human parental antibody; also called Ab17; SS-10943
# B13: 9H6 (antibody, human IgG1, kappa, V domains shown)
# VH: B1 VH with A23V, V37I, Q101R, Y104K, Y105D, Y108S
# VL: B1 VL with K45N, D50A, A51T, D70E, L91H, S93T
# notes: Fully human parental antibody; also called Ab19; SS-10945
# B14: 41E11 (antibody, human IgG1, kappa, V domains shown)
# VH: B1 VH with L4V, H35Y, K65R, V93L, Y104K, Y105D, Y108S
# VL: B1 VL with G28V, D50A, D70E, L91H, W96L, Q100G
# notes: Fully human parental antibody; also called Ab6; SS-12417
# B15: 44C1v1 (antibody, human IgG1, lambda, V domains shown)
# VH: QVQLVESGGGVVQPGRSLRLSCAASGFTLSSYGMHWVRQAPGKGLEWVAVIWYDGSNKYYADSVKGRFTISRDNSKNTLYLQMNSLRAEDTAVYYCARRGTVTTPDFDYWGQGTLVTVSS
# VL: QSALTQPASVSGSPGQSITISCTGTSSDVGTYNLVSWYQQHPGKAPKLMIYEVSKRPSGVSNRFSGSKSGNTASLTISGLQAEDEADYYCASYAGFSTWVFGGGTKLTVLG
# notes: tied to 44C1v1 by Ab20 / SS-12514; also called Ab20; SS-12514
# B16: 45A8v1 (antibody, human IgG1, lambda, V domains shown)
# VH: QVQLVESGGGVVQPGRSLRLSCAASGFTFSSYGMHWVRQAPGKGLEWVAVIWHDGSNKYYADSVKGRFTISKDNSKNTLYLQMNSLRAEDTAVYYCAREYGGNFDYWGQGTLVTVSS
# VL: B15 VL with V60I, F96Y, G111R
# notes: tied to 45A8v1 by Ab21 / SS-12515; also called Ab21; SS-12515
# B17: 46E11 (antibody, human IgG1, kappa, V domains shown)
# VH: QVQLVESGGGVVQPGRSLRLSCAASGFTFSSYGMHWVRQAPGKGLEWVAVIWYAGSNKYYADSVKGRFTISRDNSKNTLYLQMNSLRAEDTAVYYCARGDILTGYSLYYGMDVWGQGTTVTVSS
# VL: B1 VL with D50A, T69A, D70E, L91H
# notes: Fully human parental antibody; also called Ab11; SS-12421
# B18: 49E2v1 (antibody, human IgG1, lambda, V domains shown)
# VH: QVQLVESGGGVVQPGRSLRLSCAASGFTFSSYGMHWVRQAPGKGLEWVAVIWSDGNNKYYEDSVKGRFTISRDSSKNTLFLQMNSLRAEDTAVYYCARDTATPFDYWGQGTLVTVSS
# VL: B15 VL with T31I, Y51H, F96I
# notes: tied to 49E2v1 by Ab23 / SS-12516; also called Ab23; SS-12516
# B19: 48A9v1 (antibody, human IgG1, kappa, V domains shown)
# VH: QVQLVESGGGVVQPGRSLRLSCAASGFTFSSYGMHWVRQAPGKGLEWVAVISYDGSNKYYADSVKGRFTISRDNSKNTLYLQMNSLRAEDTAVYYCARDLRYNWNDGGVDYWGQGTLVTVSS
# VL: DIQMTQSPSSLSASVGDRVIITCRASQSISSYLHWYKQKPGKAPKLLIYGASRLQSGVPSRFSGSGSGTDFTLTISSLQPEDFATYYCQQSSSTPLTFGGGTKVEIKR
# notes: tied to 48A9v1 by Ab24 / SS-12513; also called Ab24; SS-12513
# B20: 33C9v5 (antibody, human IgG1, kappa, V domains shown)
# VH: B1 VH with L4V, A49S, S63T, Q101L
# VL: B1 VL with R46L, D70E, L91H, N92H
# notes: Engineered variant; also called Ab54; SS-16951
# B21: 5H7 (antibody, human IgG1, kappa, V domains shown)
# VH: B12 VH
# VL: B12 VL
# notes: Parental fully human antibody; also called Ab17; SS-10943
# B22: 5H7v3 (antibody, human IgG1, kappa, V domains shown)
# VH: B12 VH with Q16E, H42P, H79Q, D113E
# VL: B12 VL
# notes: Engineered variant; also called Ab27; SS-16913
# B23: 5H7v7 (antibody, human IgG1, kappa, V domains shown)
# VH: B12 VH with Q16E, H42P, H79Q, S106T, D113E
# VL: B12 VL
# notes: Engineered variant; also called Ab29; SS-16917
# B24: 5H7v14 (antibody, human IgG1, kappa, V domains shown)
# VH: B12 VH with Q16E, H42P, H79Q, D113E
# VL: B12 VL with D93E
# notes: Engineered variant; also called Ab34; SS-16924
# B25: 5H7v18 (antibody, human IgG1, kappa, V domains shown)
# VH: B12 VH with Q16E, H42P, H79Q, D113E
# VL: B12 VL with S94T
# notes: Engineered variant; also called Ab36; SS-16928
# B26: 5H7v22 (antibody, human IgG1, kappa, V domains shown)
# VH: B12 VH with Q16E, H42P, H79Q, S106T, D113E
# VL: B12 VL with D93E
# notes: Engineered variant; also called Ab38; SS-16932
# Biological target: T1, human GITR (Glucocorticoid-induced TNFR-related gene, TNFRSF18) (human, UniProt Q9Y5U5 26-241)
# T1 construct: also called AITR; huGITR
# T1 sequence: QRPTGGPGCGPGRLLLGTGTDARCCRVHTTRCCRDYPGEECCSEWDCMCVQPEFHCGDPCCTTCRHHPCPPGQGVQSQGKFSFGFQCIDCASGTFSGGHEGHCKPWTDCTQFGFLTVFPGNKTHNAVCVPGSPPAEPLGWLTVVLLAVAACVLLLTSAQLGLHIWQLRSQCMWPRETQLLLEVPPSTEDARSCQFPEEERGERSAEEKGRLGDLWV
# Assay: flow cytometry (MFI), antibody titration on anti-CD3-activated primary human T cells (CD25+CD4+)
# Method: Cells were collected and washed and then incubated at 4 C with titrations of the anti-human GITR antibodies or a human IgG1 isotype control antibody. After washing, cells were stained at 4 C with fluorochrome conjugated anti-human CD4 and anti-human CD25 antibodies to identify activated CD4+ effector T cells and with fluorochrome-conjugated anti-huIgG to detect bound anti-human GITR antibodies. The mean fluorescence intensity (MFI) of the anti-human GITR antibodies bound to CD25+CD4+ cells was determined by flow cytometry. The EC50s of the binding curves were calculated using GraphPad Prism® software.
row,Binder,EC50 [µg/mL]
1,B1,0.038
2,B2,0.024
3,B3,0.027
4,B4,0.035
5,B5,0.053
6,B6,0.033
7,B7,0.033
8,B8,0.051
9,B9,0.045
10,B10,0.048
11,B11,0.051
12,B12,0.164
13,B13,0.026
14,B14,0.048
15,B15,0.802
16,B16,0.102
17,B17,0.03
18,B18,0.318
19,B19,0.145

# Biological target: T2, human GITR (human, UniProt Q9Y5U5 26-241)
# T2 construct: also called TNFRSF18; Glucocorticoid-induced TNFR-related gene
# T2 sequence: T1 sequence
# Assay: flow cytometry on activated human T cells
row,Binder,EC50 [µg/mL]
1,B20,0.068
2,B21,0.303
3,B22,0.293
4,B23,0.461
5,B24,0.995
6,B25,0.804
7,B26,0.786

# Biological target: T1, human GITR (Glucocorticoid-induced …)
# Assay: cell-based or functional assay
Binder,IFNg Secretion (Fold over CD3) [fold over CD3],IFNg Secretion EC50 [µg/mL]
B1,1.9,0.0002
B2,2.2,0.0008
B3,2.2,0.0002
B4,2.7,0.001
B5,2.8,0.0004
B6,1.9,0.0005
B7,1.9,0.0008
B8,1.9,0.0012
B9,1.2,0.0006
B10,1.2,0.0008
B11,1.3,0.0005
B12,2.9,0.0113
B13,1.9,0.0005
B14,2,0.0003
B15,1.6,0.0114
B16,1.8,0.0007
B17,2.2,0.0009
B18,1.9,0.0022
B19,0.9,0.0791

# Biological target: T2, human GITR
# Assay: cell-based or functional assay
Binder,Proliferation (Fold over CD3) [fold over CD3],Proliferation EC50 [µg/mL]
B20,2.5,0.018
B21,3.4,0.008
B22,3.2,0.015
B23,2.1,0.028
B24,1.9,0.031
B25,2.7,0.012
B26,1.7,0.027
